Test results: patent US11111484B2, “Streptococcus bacteriophage lysins for detection and treatment of gram positive bacteria” (priority 2011, dated 2021)

Key:
[1] = tested on: MRSA strain MW2; assay: murine septicemia model, MRSA infection alone; type: in vivo, FVB/NJ mice; conditions: PlySs2 1 mg
Method: The Rockefeller University's Institutional Animal Care and Use Committee approved all in vivo protocols. A systemic infection model described in Daniel, A. et al., was used to test for the in vivo efficacy of PlySs2 against multiple gram-positive bacteria. Briefly, 4-5 week old female FVB/NJ mice (weight range 15 to 20 g) were obtained from The Jackson Laboratory (Bar Harbor, Me.). After a period of acclimation, mice were injected intraperitoneally (IP) with 0.5 ml of mid log-phase (OD600 0.5) bacteria diluted with 5% hog gastric mucin (Sigma) in saline. Bacterial suspensions contained ˜5×10^5 CFU/ml of MW2, a PVL toxin-encoding MRSA strain, ˜1×10^7 of MGAS5005, an M1 serotype of Streptococcus pyogenes that is virulent in humans and mice (Musser), or a combination of both bacteria simultaneously at the above concentrations for the mix infection experiments. Actual bacterial inoculation titers were calculated by serial dilution and plating to Columbia blood agar plates for each experiment. Mice became bacteremic within one to three hours and contained MRSA and/or S. pyogenes in their organs (including spleen, liver, kidney, and heart/blood) ([50], and unpublished observations). […] The survival rate for each experimental group was monitored every 12 hours for the first 24 hours then every 24 hours up to 10 days post-infection. The data were statistically analyzed by Kaplan Meier Survival curves and a Logrank test performed for 95% confidence intervals using the Prism computer program (GraphPad Software; La Jolla, Calif.).
To determine if the broad lytic activity of PlySs2 could provide in vivo protection from infection with gram-positive pathogens, either alone or as a mixed infection, FVB/NJ mice were intraperitoneally injected with ˜5×10^5 CFU of MRSA strain MW2, ˜1×10^7 of S. pyogenes strain MGAS5005 and/or both bacteria simultaneously at the concentrations above. […] Mice were then monitored for survival over ten days. […]

[2] = tested on: S. agalactiae 090R; assay: ΔPlySs1 OD600 lysis, 1 hr, optimal buffering conditions; type: cell-based, Streptococcus agalactiae
[3] = tested on: S. sobrinus 6715; assay: as above; type: cell-based, Streptococcus sobrinus
[4] = tested on: S. pyogenes A486; assay: as above; type: cell-based, Streptococcus pyogenes
[5] = tested on: S. uberis 27598; assay: as above; type: cell-based
[6] = tested on: S. aureus RN4220; assay: as above; type: cell-based, Staphylococcus aureus
[7] = tested on: L. monocytogenes HER1084; assay: as above; type: cell-based, Listeria monocytogenes
[8] = tested on: S. suis strain 7711; assay: ΔPlySs1 biochemical characterization, turbidity reduction (OD600); type: cell-based, Streptococcus suis; conditions: for activity after 6 hours at 40° C. / activity after 6 hours at 45° C.: 6-hr incubation; for pH of maximal activity in bis-tris-propane: BTP 40 mM, pH 7.0-9.7, 110 μg/ml; for temperature at which activity completely abolished: held 30 min at 35° C.-60° C.; for effect of DTT on activity: pre-incubated 1 hr with 5 mM DTT
Method: The optimal biochemical conditions for PlySs1 were determined against live cells of the encoding S. suis strain (7711). For these experiments, activity was gauged through the degree of turbidity reduction (OD600) of an aqueous bacterial suspension following the addition of lysin. The pH-dependence of the enzyme was first addressed using two buffer sets with adjacent pH ranges, citrate/phosphate: 4.6-8.0; and bis-tris-propane (BTP): 7.0-9.7. An extended spectrum of lysis was observed, from 5.4-9.4 (FIG. 11A). In BTP, lysis was maximal from 8.2-9.0; at commensurate pH-values, however, the magnitude of the OD-drop was slightly more pronounced in citrate/phosphate (FIG. 11B).
The thermal stability of PlySs1 was examined by incubating the enzyme at various elevated temperatures prior to use (the OD-drop experiment itself was always conducted at 37° C.). When held at 35° C.-60° C. for 30 min, lysin activity was virtually unaffected until 50° C., at which point it was completely abolished (FIG. 14A). […] The latter corresponds to typical porcine body temperature.

[9] = tested on: S. agalactiae type II; assay: ΔPlySs1 OD600 lysis, 1 hr, optimal buffering conditions; type: cell-based, Streptococcus agalactiae
[10] = tested on: S. sanguinis 10556; assay: as above; type: cell-based, Streptococcus sanguinis

B1: PlySs2: Streptococcus suis prophage lysin, SEQ ID NO:3; N-terminal CHAP domain and C-terminal SH3-type 5 domain (protein, listed as Streptococcus suis)
chain: MTTVNEALNNVRAQVGSGVSVGNGECYALASWYERMISPDATVGLGAGVGWVSGAIGDTISAKNIGSSYNWQANGWTVSTSGPFKAGQIVTLGATPGNPYGHVVIVEAVDGDRLTILEQNYGGKRYPVRNYYSAASYRQQVVHYITPPGTVAQSAPNLAGSRSYRETGTMTVTVDALNVRRAPNTSGEIVAVYKRGESFDYDTVIIDVNGYVWVSYIGGSGKRNYVATGATKDGKRFGNAWGTFK
survival over 10 days (mice surviving/total) ([1]; IP 3 h post-infection, ClyS 1 mg): 16/18
mice died at forty-eight hours (dead/total) [1]: 2/18
survival over 10 days ([1]; ClyS 1 mg): 88%

B2: ΔPlySs1: truncated PlySs1 lysin, SEQ ID NO:2, N-terminal 254 amino acids: only N-terminal enzymatic and central binding domains (protein, listed as Streptococcus suis)
chain: MTINLETSIRWMSDRVGKVSYSMDYRNGPNSYDCSSAVYYALMAGGAISAGWAVNTEYMHDWLIRNGYVLVAENKPFNAQRHDVCILGKRGYSSGAGGHVVIFVDNVNVIHCNYARNGISIDNYNQVHRGMYYYLYRPANQPSISNKSLDQLVKETLAGVHGNGDTRKASLGSQYEAVMAVINGKASASEKSDEELAREVLAGKHGAGEDRKRSLGPRYEPVQAKVNELLKAKEKPSETAKNEPQTVQFKEDGDL
lysis value after 1 hr (treated/untreated OD600 ratio) ([2]; 6.5 μg/ml): 0.97
lysis value after 1 hr (treated/untreated OD600 ratio) ([2]; 13 μg/ml): 0.99
lysis value after 1 hr (treated/untreated OD600 ratio) ([2]; 30 μg/ml): 0.97
lysis value after 1 hr (treated/untreated OD600 ratio) ([2]; 65 μg/ml): 0.98
lysis value after 1 hr (treated/untreated OD600 ratio) ([2]; 130 μg/ml): 0.93
lysis value after 1 hr (treated/untreated OD600 ratio) ([3]; 6.5 μg/ml): 0.64
lysis value after 1 hr (treated/untreated OD600 ratio) ([3]; 13 μg/ml): 0.48
lysis value after 1 hr (treated/untreated OD600 ratio) ([3]; 30 μg/ml): 0.39
lysis value after 1 hr (treated/untreated OD600 ratio) ([3]; 65 μg/ml): 0.32
lysis value after 1 hr (treated/untreated OD600 ratio) ([3]; 130 μg/ml): 0.23
lysis value after 1 hr (treated/untreated OD600 ratio) ([4]; 6.5 μg/ml): 0.12
lysis value after 1 hr (treated/untreated OD600 ratio) ([4]; 13 μg/ml): 0.13
lysis value after 1 hr (treated/untreated OD600 ratio) ([4]; 30 μg/ml): 0.13
lysis value after 1 hr (treated/untreated OD600 ratio) ([4]; 65 μg/ml): 0.11
lysis value after 1 hr (treated/untreated OD600 ratio) ([4]; 130 μg/ml): 0.10
lysis value after 1 hr (treated/untreated OD600 ratio) ([5]; 6.5 μg/ml): 0.42
lysis value after 1 hr (treated/untreated OD600 ratio) ([5]; 13 μg/ml): 0.23
lysis value after 1 hr (treated/untreated OD600 ratio) ([5]; 30 μg/ml): 0.16
lysis value after 1 hr (treated/untreated OD600 ratio) ([5]; 65 μg/ml): 0.14
lysis value after 1 hr (treated/untreated OD600 ratio) ([5]; 130 μg/ml): 0.12
lysis value after 1 hr (treated/untreated OD600 ratio) ([6]; 6.5 μg/ml): 0.89
lysis value after 1 hr (treated/untreated OD600 ratio) ([6]; 13 μg/ml): 0.78
lysis value after 1 hr (treated/untreated OD600 ratio) ([6]; 30 μg/ml): 0.55
lysis value after 1 hr (treated/untreated OD600 ratio) ([6]; 65 μg/ml): 0.31
lysis value after 1 hr (treated/untreated OD600 ratio) ([6]; 130 μg/ml): 0.10
lysis value after 1 hr (treated/untreated OD600 ratio) ([7]; 6.5 μg/ml): 0.63
lysis value after 1 hr (treated/untreated OD600 ratio) ([7]; 13 μg/ml): 0.52
lysis value after 1 hr (treated/untreated OD600 ratio) ([7]; 30 μg/ml): 0.26
lysis value after 1 hr (treated/untreated OD600 ratio) ([7]; 65 μg/ml): 0.14
lysis value after 1 hr (treated/untreated OD600 ratio) ([7]; 130 μg/ml): 0.04
effect of NaCl on bacteriolysis ([8]; 0-1000 mM NaCl): bacteriolysis varied little
activity after 6 hours at 40° C. [8]: maintained essentially native activity
activity after 6 hours at 40° C. ([8]; listed as PlySs1): unaffected
activity after 6 hours at 45° C. [8]: some loss of activity, though not complete
activity after 6 hours at 45° C. ([8]; listed as PlySs1): partial decrease in activity
pH of maximal activity in bis-tris-propane [8]: 9.0
pH of maximal activity in bis-tris-propane ([8]; listed as PlySs1): 8.2-9.0
pH spectrum of lysis ([8]; citrate/phosphate 4.6-8.0 and BTP 7.0-9.7): 5.4-9.4
effect of EDTA on activity ([8]; excess EDTA): did not negatively impact activity
temperature at which activity completely abolished [8]: complete loss of activity was observed between the 45 °C and 50 °C samples
temperature at which activity completely abolished ([8]; listed as PlySs1): 50 °C
effect of DTT on activity [8]: activity was unchanged
effect of DTT on activity ([8]; listed as PlySs1): did not negatively impact activity
lysis value after 1 hr (treated/untreated OD600 ratio) ([9]; 6.5 μg/ml): 0.61
lysis value after 1 hr (treated/untreated OD600 ratio) ([9]; 13 μg/ml): 0.21
lysis value after 1 hr (treated/untreated OD600 ratio) ([9]; 30 μg/ml): 0.11
lysis value after 1 hr (treated/untreated OD600 ratio) ([9]; 65 μg/ml): 0.08
lysis value after 1 hr (treated/untreated OD600 ratio) ([9]; 130 μg/ml): 0.04
lysis value after 1 hr (treated/untreated OD600 ratio) ([10]; 6.5 μg/ml): 0.48
lysis value after 1 hr (treated/untreated OD600 ratio) ([10]; 13 μg/ml): 0.44
lysis value after 1 hr (treated/untreated OD600 ratio) ([10]; 30 μg/ml): 0.28
lysis value after 1 hr (treated/untreated OD600 ratio) ([10]; 65 μg/ml): 0.21
lysis value after 1 hr (treated/untreated OD600 ratio) ([10]; 130 μg/ml): 0.11
